According to IntAct's records for PubMed 31515488:

B1: Radial spoke head 1 homolog (Homo sapiens), Q8WYR4 (parent)
chain: MSDLGSEELEEEGENDIGEYEGGRNEAGERHGRGRARLPNGDTYEGSYEFGKRHGQGIYKFKNGARYIGEYVRNKKHGQGTFIYPDGSRYEGEWANDLRHGHGVYYYINNDTYTGEWFAHQRHGQGTYLYAETGSKYVGTWVNGQQEGTAELIHLNHRYQGKFLNKNPVGPGKYVFDVGCEQHGEYRLTDMERGEEEEEEELVTVVPKWKATQITELALWTPTLPKKPTSTDGPGQDAPGAESAGEPGEEAQALLEGFEGEMDMRPGDEDADVLREESREYDQEEFRYDMDEGNINSEEEETRQSDLQD
partner: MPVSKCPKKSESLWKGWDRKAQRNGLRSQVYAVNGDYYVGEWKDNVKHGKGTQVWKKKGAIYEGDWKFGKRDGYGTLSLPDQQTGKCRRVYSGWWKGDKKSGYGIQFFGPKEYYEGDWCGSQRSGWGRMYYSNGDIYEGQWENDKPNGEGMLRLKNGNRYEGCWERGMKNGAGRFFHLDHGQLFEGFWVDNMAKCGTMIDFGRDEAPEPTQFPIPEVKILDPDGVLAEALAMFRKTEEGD
B2: Calcium-binding and coiled-coil domain-containing protein 2 (Homo sapiens), Q13137 (parent)
chain: MEETIKDPPTSAVLLDHCHFSQVIFNSVEKFYIPGGDVTCHYTFTQHFIPRRKDWIGIFRVGWKTTREYYTFMWVTLPIDLNNKSAKQQEVQFKAYYLPKDDEYYQFCYVDEDGVVRGASIPFQFRPENEEDILVVTTQGEVEEIEQHNKELCKENQELKDSCISLQKQNSDMQAELQKKQEELETLQSINKKLELKVKEQKDYWETELLQLKEQNQKMSSENEKMGIRVDQLQAQLSTQEKEMEKLVQGDQDKTEQLEQLKKENDHLFLSLTEQRKDQKKLEQTVEQMKQNETTAMKKQQELMDENFDLSKRLSENEIICNALQRQKERLEGENDLLKRENSRLLSYMGLDFNSLPYQVPTSDEGGARQNPGLAYGNPYSGIQESSSPSPLSIKKCPICKADDICDHTLEQQQMQPLCFNCPICDKIFPATEKQIFEDHVFCHSL
partner: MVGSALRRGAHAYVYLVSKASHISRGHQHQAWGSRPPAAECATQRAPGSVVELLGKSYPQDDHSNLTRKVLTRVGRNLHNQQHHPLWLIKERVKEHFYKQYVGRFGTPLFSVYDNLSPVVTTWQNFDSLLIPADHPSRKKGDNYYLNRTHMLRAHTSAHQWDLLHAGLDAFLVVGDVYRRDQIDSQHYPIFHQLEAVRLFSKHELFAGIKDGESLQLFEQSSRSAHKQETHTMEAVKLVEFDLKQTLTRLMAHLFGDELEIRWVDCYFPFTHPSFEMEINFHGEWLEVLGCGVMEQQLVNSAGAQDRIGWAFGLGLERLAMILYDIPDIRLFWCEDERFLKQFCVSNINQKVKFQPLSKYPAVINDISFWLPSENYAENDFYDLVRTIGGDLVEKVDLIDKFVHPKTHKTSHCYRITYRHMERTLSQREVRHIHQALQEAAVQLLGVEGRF
B3: Probable RNA-binding protein EIF1AD (Homo sapiens), Q8N9N8 (parent)
chain: MSQATKRKHVVKEVLGEHIVPSDQQQIVRVLRTPGNNLHEVETAQGQRFLVSMPSKYRKNIWIKRGDFLIVDPIEEGEKVKAEISFVLCKDHVRSLQKEGFWPEAFSEVAEKHNNRNRQTQPELPAEPQLSGEESSSEDDSDLFVNTNRRQYHESEEESEEEEAA
partner: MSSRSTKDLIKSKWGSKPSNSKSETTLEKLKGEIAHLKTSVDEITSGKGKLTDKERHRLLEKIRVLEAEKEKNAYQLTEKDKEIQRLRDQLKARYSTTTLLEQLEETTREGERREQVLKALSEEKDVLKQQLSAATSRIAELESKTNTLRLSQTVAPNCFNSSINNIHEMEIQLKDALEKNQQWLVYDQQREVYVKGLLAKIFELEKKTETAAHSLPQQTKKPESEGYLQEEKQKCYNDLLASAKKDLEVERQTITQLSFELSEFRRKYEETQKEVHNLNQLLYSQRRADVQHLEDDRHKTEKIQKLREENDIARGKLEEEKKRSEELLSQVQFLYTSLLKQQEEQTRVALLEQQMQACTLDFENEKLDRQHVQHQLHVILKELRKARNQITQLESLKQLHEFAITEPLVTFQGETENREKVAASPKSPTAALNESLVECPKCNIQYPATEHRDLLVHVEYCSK
B4: Growth arrest and DNA damage-inducible protein GADD45 gamma (Homo sapiens), O95257 (parent)
chain: MTLEEVRGQDTVPESTARMQGAGKALHELLLSAQRQGCLTAGVYESAKVLNVDPDNVTFCVLAAGEEDEGDIALQIHFTLIQAFCCENDIDIVRVGDVQRLAAIVGAGEEAGAPGDLHCILISNPNEDAWKDPALEKLSLFCEESRSVNDWVPSITLPE
partner: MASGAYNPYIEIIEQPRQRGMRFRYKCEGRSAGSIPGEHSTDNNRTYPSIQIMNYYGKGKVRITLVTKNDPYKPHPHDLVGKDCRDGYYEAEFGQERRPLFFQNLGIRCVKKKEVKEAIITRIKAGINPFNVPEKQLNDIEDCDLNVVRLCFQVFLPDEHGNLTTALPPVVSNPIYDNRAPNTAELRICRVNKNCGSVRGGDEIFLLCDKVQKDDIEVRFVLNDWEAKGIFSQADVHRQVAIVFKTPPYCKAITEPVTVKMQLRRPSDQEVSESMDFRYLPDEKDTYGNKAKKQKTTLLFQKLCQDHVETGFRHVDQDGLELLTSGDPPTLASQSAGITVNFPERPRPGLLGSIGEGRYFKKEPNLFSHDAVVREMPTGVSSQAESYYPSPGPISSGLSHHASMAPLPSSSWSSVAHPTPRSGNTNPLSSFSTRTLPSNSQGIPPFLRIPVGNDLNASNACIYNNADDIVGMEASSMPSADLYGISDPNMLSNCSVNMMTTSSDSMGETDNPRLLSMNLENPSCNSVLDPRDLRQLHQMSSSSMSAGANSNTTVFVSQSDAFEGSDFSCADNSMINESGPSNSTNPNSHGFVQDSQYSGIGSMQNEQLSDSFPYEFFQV
B5: Microtubule-associated tumor suppressor candidate 2 (Homo sapiens), Q5JR59-3 (parent)
chain: MGHCCCKPYNCLQCLDKTNESALVKEKELSIELANIRDEVAFHTAKCEKLQKEKEELERRFEDEVKRLGWQQQAELQELEERLQLQFEAEMARLQEEHGDQLLSIRCQHQEQVEDLTASHDAALLEMENNHTVAITILQDDHDHKVQELMSTHELEKKELEENFEKLRLSLQDQVDTLTFQSQSLRDRARRFEEALRKNTEEQLEIALAPYQHLEEDMKSLKQVLEMKNQQIHEQEKKILELEKLAEKNIILEEKIQVLQQQNEDLKARIDQNTVVTRQLSEENANLQEYVEKETQEKKRLSRTNEELLWKLQTGDPTSPIKLSPTSPVYRGSSSGPSSPARVSTTPR
partner: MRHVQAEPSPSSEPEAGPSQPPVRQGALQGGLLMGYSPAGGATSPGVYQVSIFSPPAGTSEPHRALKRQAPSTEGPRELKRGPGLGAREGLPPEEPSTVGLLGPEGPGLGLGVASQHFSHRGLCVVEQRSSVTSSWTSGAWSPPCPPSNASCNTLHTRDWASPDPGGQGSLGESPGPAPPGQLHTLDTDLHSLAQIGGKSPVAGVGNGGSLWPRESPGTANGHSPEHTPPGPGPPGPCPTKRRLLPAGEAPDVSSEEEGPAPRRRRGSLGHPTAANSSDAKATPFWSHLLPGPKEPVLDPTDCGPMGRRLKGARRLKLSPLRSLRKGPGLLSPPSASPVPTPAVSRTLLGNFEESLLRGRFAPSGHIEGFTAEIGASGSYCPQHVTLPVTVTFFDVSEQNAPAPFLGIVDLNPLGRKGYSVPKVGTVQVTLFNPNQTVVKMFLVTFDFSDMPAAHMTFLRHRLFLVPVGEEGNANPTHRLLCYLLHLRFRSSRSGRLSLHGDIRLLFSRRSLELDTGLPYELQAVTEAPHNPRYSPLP
B6: Neutrophil cytosol factor 2 (Homo sapiens), P19878 (parent)
chain: MSLVEAISLWNEGVLAADKKDWKGALDAFSAVQDPHSRICFNIGCMYTILKNMTEAEKAFTRSINRDKHLAVAYFQRGMLYYQTEKYDLAIKDLKEALIQLRGNQLIDYKILGLQFKLFACEVLYNIAFMYAKKEEWKKAEEQLALATSMKSEPRHSKIDKAMECVWKQKLYEPVVIPVGKLFRPNERQVAQLAKKDYLGKATVVASVVDQDSFSGFAPLQPQAAEPPPRPKTPEIFRALEGEAHRVLFGFVPETKEELQVMPGNIVFVLKKGNDNWATVMFNGQKGLVPCNYLEPVELRIHPQQQPQEESSPQSDIPAPPSSKAPGRPQLSPGQKQKEEPKEVKLSVPMPYTLKVHYKYTVVMKTQPGLPYSQVRDMVSKKLELRLEHTKLSYRPRDSNELVPLSEDSMKDAWGQVKNYCLTLWCENTVGDQGFPDEPKESEKADANNQTTEPQLKKGSQVEALFSYEATQPEDLEFQEGDIILVLSKVNEEWLEGECKGKVGIFPKVFVEDCATTDLESTRREV
B7: Syntenin-2 (Homo sapiens), Q9H190 (parent)
chain: MSSLYPSLEDLKVDQAIQAQVRASPKMPALPVQATAISPPPVLYPNLAELENYMGLSLSSQEVQESLLQIPEGDSTAVSGPGPGQMVAPVTGYSLGVRRAEIKPGVREIHLCKDERGKTGLRLRKVDQGLFVQLVQANTPASLVGLRFGDQLLQIDGRDCAGWSSHKAHQVVKKASGDKIVVVVRDRPFQRTVTMHKDSMGHVGFVIKKGKIVSLVKGSSAARNGLLTNHYVCEVDGQNVIGLKDKKIMEILATAGNVVTLTIIPSVIYEHMVKKLPPVLLHHTMDHSIPDA
partner: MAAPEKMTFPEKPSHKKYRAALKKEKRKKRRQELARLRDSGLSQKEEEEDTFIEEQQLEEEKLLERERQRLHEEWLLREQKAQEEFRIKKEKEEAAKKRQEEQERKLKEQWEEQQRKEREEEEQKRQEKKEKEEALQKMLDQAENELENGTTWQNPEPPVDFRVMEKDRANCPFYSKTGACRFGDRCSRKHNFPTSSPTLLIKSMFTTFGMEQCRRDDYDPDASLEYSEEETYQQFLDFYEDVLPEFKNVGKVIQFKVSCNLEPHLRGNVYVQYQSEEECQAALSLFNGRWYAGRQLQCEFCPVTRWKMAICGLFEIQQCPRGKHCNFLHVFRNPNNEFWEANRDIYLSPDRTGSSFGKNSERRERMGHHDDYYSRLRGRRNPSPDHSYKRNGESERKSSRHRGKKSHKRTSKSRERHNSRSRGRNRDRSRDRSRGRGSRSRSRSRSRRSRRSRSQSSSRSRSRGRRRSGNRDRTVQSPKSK
B8: E3 ubiquitin-protein ligase CHIP (Homo sapiens), Q9UNE7 (parent)
chain: MKGKEEKEGGARLGAGGGSPEKSPSAQELKEQGNRLFVGRKYPEAAACYGRAITRNPLVAVYYTNRALCYLKMQQHEQALADCRRALELDGQSVKAHFFLGQCQLEMESYDEAIANLQRAYSLAKEQRLNFGDDIPSALRIAKKKRWNSIEERRIHQESELHSYLSRLIAAERERELEECQRNHEGDEDDSHVRAQQACIEAKHDKYMADMDELFSQVDEKRKKRDIPDYLCGKISFELMREPCITPSGITYDRKDIEEHLQRVGHFDPVTRSPLTQEQLIPNLAMKEVIDAFISENGWVEDY

Variants of: B1
Settings: with morn3_human MORN3, Q6PF18

effect of a mutation on the interaction	Variant
with no effect	G248R
with no effect	G144R

Variants of: B2
Settings: with syfm_human FARS2, O95363

effect of a mutation on the interaction	Variant
with no effect	E222K

Variants of: B3
Settings: with cep55_human CEP55, Q53EZ4

effect of a mutation on the interaction	Variant
with no effect	R48C

Variants of: B4
Settings: with rel_human REL

effect of a mutation on the interaction	Variant
with no effect	G112S

Variants of: B5
Settings: with atosb_human ATOSB

effect of a mutation on the interaction	Variant
with no effect	A89V

Variants of: B6
Settings: with kifa3_human KIFAP3, Q92845
Chain of kifa3_human KIFAP3, Q92845 (Q92845 whole entry): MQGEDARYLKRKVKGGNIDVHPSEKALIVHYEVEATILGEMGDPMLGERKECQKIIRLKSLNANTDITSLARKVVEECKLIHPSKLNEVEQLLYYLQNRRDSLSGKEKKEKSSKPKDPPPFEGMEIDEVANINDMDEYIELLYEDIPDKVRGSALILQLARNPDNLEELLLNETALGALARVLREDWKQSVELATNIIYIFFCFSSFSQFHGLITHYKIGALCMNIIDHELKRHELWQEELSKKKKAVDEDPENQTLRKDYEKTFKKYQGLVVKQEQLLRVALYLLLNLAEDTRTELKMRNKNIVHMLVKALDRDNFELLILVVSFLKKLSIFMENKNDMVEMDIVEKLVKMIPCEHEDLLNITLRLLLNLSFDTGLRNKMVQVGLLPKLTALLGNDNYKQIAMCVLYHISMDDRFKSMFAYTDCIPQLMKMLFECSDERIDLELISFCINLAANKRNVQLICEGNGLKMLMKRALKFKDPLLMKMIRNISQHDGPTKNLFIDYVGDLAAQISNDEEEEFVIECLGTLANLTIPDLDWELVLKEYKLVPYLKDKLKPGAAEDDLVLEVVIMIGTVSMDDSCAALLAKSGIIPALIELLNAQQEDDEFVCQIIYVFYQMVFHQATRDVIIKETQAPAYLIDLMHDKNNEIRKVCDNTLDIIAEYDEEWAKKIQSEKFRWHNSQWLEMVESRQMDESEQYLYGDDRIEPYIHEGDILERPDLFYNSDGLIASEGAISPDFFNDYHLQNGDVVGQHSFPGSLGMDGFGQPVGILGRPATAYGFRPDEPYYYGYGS

effect of a mutation on the interaction	Variant
with no effect	V297A

Variants of: B7
Settings: with ZRSR2, Q15696

effect of a mutation on the interaction	Variant
with no effect	V182M
disrupting interaction strength	G242R
disrupting interaction strength	G225R

Variants of: B8
Settings: with noe3_human OLFM3, Q96PB7
Chain of noe3_human OLFM3, Q96PB7 (Q96PB7 whole entry): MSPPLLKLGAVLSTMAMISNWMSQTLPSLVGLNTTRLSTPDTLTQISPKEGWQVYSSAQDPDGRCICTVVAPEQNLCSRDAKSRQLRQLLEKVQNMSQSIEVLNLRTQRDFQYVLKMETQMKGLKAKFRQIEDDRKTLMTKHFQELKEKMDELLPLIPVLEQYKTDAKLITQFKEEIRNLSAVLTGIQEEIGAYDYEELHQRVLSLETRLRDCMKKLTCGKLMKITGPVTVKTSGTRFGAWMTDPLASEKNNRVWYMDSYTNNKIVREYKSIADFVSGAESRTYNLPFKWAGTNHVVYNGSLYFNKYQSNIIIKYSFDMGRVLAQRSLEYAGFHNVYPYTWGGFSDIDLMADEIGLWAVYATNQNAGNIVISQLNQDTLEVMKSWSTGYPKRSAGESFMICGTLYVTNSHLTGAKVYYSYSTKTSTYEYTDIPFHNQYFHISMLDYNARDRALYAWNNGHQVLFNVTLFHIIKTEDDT

Variant	effect of a mutation on the interaction
Q181H	with no effect
